Experimental data from article PMC8967717 (Nature, 2022).

How the values were obtained:
[1] = biological target: SARS-CoV-2 wild-type spike receptor-binding domain (SARS-CoV-2, WT (MN908947), UniProt P0DTC2)
[2] = biological target: SARS-CoV-2 wild-type spike (S) protein (SARS-CoV-2, WT (MN908947), UniProt P0DTC2)

| Binder | binding result [1] | binding result [2] |
| --- | --- | --- |
| XGV017 (antibody, V domains shown) VH: EVQLVESGGGLIQPGGSLRLSCAASGVTVSSNYMNWVRQAPGKGLEWVSVIYPGGTRDYSDSVKGRFTISRDSSKNTLYLQMNSLRDEDTAFYYCARDLVVYGMDVWGQGTTVTVTS VL: DIQLTQSPSSLSASVGDRVTITCRASQGISSYLAWYQQKPGKAPKLLIYAASTLQSGVPSRFSGSGSGTDFTLTISSLQPEDFAAYYCQLLNTYPLTFGGGTKVEIK | binds | binds |
| XGV031 (antibody, V domains shown) VH: QVQLVQSGAEVKKPGSSVKVSCKASGGTFSNYALSWVRQAPGQGLEWMGGIIPIFGTTNYAQNFQGRVTITADESTSTAYMELSSLRSEDTAVYYCARLDGYSFGHNRYYQDGMDDWGQGTTVTVSS VL: DIQMTQSPSSLSASVGDRVTITCRASQAIRSDLGWYQQKPGKAPKCLIYAASTLQSGVPSRFSGSGSGTEFTLTISSLQPEDFATYYCLQQNIYPRTFGQGTKVEI | binds | binds |
| XGv055 (antibody, V domains shown) VH: QVQLVQSGAEVKKPGSSVKVSCKASGGTFSSYALSWVRQAPGQGLEWMGGIIPIFGTTNYAQKFQGRVTITADESSSTAYMELSSLRSEDTAVYYCARLDGYSFGHNRYYQDGMDDWGQGTTVTVSS VL: DIQMTQSPSSLSASVGDRVTITCRASQGIRNDLGWYQQKPGKAPKCLIYAASTLQSGVPSRFSGSGSGTEFTLTISSLQPEDFATYYCLQQNIYPRTFGQGTKVEIK | binds | binds |
| XGv053 (antibody, V domains shown) VH: QVQLVQSGAEVKKPGSSVKVSCKASGGTFSSYALTWVRQAPGQGLEWMGGIIPIFGTTNYAQKFQGRVTITADESTSTAYMELTSLRSEDTAVYYCARLDGYSFGHNRYYQDGMDDWGQGTTVTVSS VL: DIQMTQSPSSLSASVGDRVTITCRASQDIRNDLGWYQQKPGKAPKCLIYAASTLQSGVPSRFSGSGSGTEFTLTISSLQPEDFATYYCLQQNIYPRTFGQGTKVEIK | binds | binds |
| XGv051 (antibody, V domains shown) VH: QVQLVQSGAEVKKPGSSVKVSCKASGGTFSNYALSWVRQAPGQGLEWMGGIIPIFGTTNYAQKFQGRVTITADESTSTAYMELSSLRSEDTAVYYCARLDGYSFGHDRYYQDGMDDWGPGTTVTVSS VL: DIQMTQSPSSLSASVGDRVTITCRASQAIRNDLGWYQQKPGKAPKCLIYAASTLQSGVPSRFSGSGSGTEFTLTISSLQPEDFATYFCLQQNIYPRTFGQGTKVEI | binds | binds |
| XGV026 (antibody, V domains shown) VH: EVQLVESGGGVIQPGGSLRLSCAASEIIVSSNYMNWVRQAPGKGLEWVSVIYPGGSSFYADSVKGRFTISRDNSKNTLYLQMNSLRVEDTAVYYCARDSPHRPGTIWGQGTLVVVSS VL: DIQMTQSPSSLSASVGDRVTITCRASQDINNYLNWYQQKPGKAPKLLIYDAFTLEAGVPSRFSGARFGTDFTFTISSLQPEDIATYYCHQCDNLPCTFGGGTKVEIK | binds | binds |
| XGV016 (antibody, V domains shown) VH: QVQLVQSGTEVRKPGASVTVSCKASGYTFTTYHMHWVRRAPGQGLEWMGIIDPGTGGASYPQKFRGRVTLTRDTSTNTVYMELSSLRFQDTAIYYCARAEGSSWLGWFDPWGQGTLVTVSS VL: QSVLTQPPSASGTPGQRVSISCSGSSSNIGTNYVYWYQQLPGTAPKLLIYKNNQRPSGVPDRFSGSKSGTSASLAISGLRSEDEADYFCASWDNGLSGSGWVFGGGTKLTV | binds | binds |
| XGV042 (antibody, V domains shown) VH: QITLKESGPTLVKPTQTLTLTCTFSGLSMTTSGVGVGWIRQPPGKALEWLALIYWDDDKRYSPFLKSRLTITKDTSKNQVVLTMTNMDPADTGTYFCAHHTIPSIFDHWGQGTLVTVSS VL: QSALTQPASVSGSPGQSITISCTATSSDVGVYNYVSWYQQYPGKAPRLIIFEVSNRPSGVSSRFSGSKSGYTASLTISGLQTDDEADYYCSSYTTTSTVFGGGTKLTVL | binds | binds |
| XGV050 (antibody, V domains shown) VH: EVQLVESGGGLVQPGGSLRLSCAASGFTFSRYDMHWVRQAAGKGLEWVSGIGAPGDTYYAGSVKGRFTISRENAKTSLHLQMNNLRAGDTAVYYCTRGWFGENYMDVWGKGTTVTVSS VL: EIVLTQSPATLSLSPGERATLSCRASQSVSNHLAWFQQKPGQSPRLLIYDASNRATGIPARFSGSGSGTDFTLTISSLEPEDFAIYYCHQRSNWPTFGQGTKVEIK | binds | binds |
| XGv266 (antibody, V domains shown) VH: QITLKESGPTLVRPTQTLTLTCTFSGLSLSAPAEGVGWIRQPPGKALEWLALIYWEGDQRYSPSLKSRLTITKDTSKKQVVLTMTNMDPVDTATYYCARHSVATIFDFWGQGTLVTVSS VL: QSALTQPASVSGSPGQSITISCTGTSSDVGCCNYVSWYQHHPGKAPKLMIYEVTNRPSGISDRFSGSKSGNTASLTISGLQAEDEAAYYCSSYTTSTARVVFGGGTKLTVL | binds | binds |
| XGv261 (antibody, V domains shown) VH: QLQLQESGPGLVRPSETLSLTCTVSGGSITDSGYYWGWIRQPPGKGLEWIGNIFYSGSTYYNPSLKSRVTISVDTSKNQFSLRLSSVTAADTAVYYCAREIGIIDYWGQGSLVIVSS VL: DIQMTQSPSSLSASVGDRVTITCRASQGISNSLAWYQQKPGKAPKLLLYGASTLESGVPSRFSGSGSGTHFTLTISSLQPEDFATYFCQQYYSSPPRTFGGGTKVEI | binds | binds |
| XGv177 (antibody, V domains shown) VH: EVQLVESGGGLIQPGGSLRLSCAASGVTVSSNYMTWVRQAPGKGLDWVSVIYSGGSTFYADSVKGRFTISRDNSKNTLYLQMNSLRVEDTAVYYCARDLVDYGLDVWGQGTTVTVSS VL: DIQLTQSPSFLSASVGDRVTITCRASQGIASYLAWYQQKPGKPPKLLIYAASTLQSGVPTRFSGSGSGTEFTLTITSLQPEDFATYYCQLLSRHPPTFGGGTKVEI | binds | binds |
| XGv074 (antibody, V domains shown) VH: EVQLVESGGGLIQPGGSLRLSCAASGITVSANYMSWVRQAPGKGLEWVSVIYSGGSTYYADSVKGRFTISRDHSKNTLYLQMKNLRAEDTAVYYCARDRGSSGYLGDQPYEYWGQGTLVTVSS VL: DIQMTQSPSSLSASVGDRVTITCQASQDINKYLNWYQQKPGKAPKLLIYGASNLETGVPSRFSGSGSGTDFTFTISSLRPEDIATYYCQQYDPLPVTFGGGTRVEIK | binds | binds |
| XGv264 (antibody, V domains shown) VH: QITLKESGPTLVKPTQTLTLTCAFSGFSLNTGGAGVGWIRQPPGKALEWLALIYWDGDKRYNPSLKSRLAIIMDTSKNRVVLTMTNMDPVDTATYYCAHHKIEYIFDYWGQGTLVAVSS VL: QSALTQPASVSGSPGQSITVSCTGTSSDLGNFQYVSWYQHHPGKAPKLLIYEVSHRPSGVSNRFSGSKSGNTASLTISGLQAEDEADYYCCSYTTTTIPVAFGGGTRLTVL | binds | binds |
